Where no end group is shown, it is not given here. [ ]: non-standard residue; d: D form.
Biological target: T1, amyloid beta peptide (Homo sapiens, UniProt P05067)
T1 construct: tested for the recognition of both the D3 peptide and the amyloid beta peptide in a standard ELISA
Experiment: Immunization of mice with D-peptides
Type: in vivo
Conditions: D3 covalently bonded to KLH, booster injections
Method: Mice were immunized with D-peptides. Use was made of the D3 peptide and also a retro-inverse peptide of the amyloid beta peptide (riAbeta1-16; retro-inverso-Abeta(1-16)). After multiple booster injections (booster effect), fusion to generate monoclonal antibodies was carried out according to standard methods. It was possible to isolate monoclonal antibodies which bind to D3, riAbetal-16, and to the amyloid beta peptide. The immunization with the mentioned D-peptides thus leads to a protective immune response against the amyloid beta peptide. D3 was covalently bonded (crosslinking) to KLH (keyhole limpet hemocyanin) and immunized mice with standard procedures. These were then fused with mouse myeloma cells according to standard protocols. The cell culture supernatant of the resulting hybridoma cells were then tested for the recognition of both the D3 peptide and the amyloid beta peptide in a standard ELISA.

T1 sequence (P05067 672-713 limits assumed): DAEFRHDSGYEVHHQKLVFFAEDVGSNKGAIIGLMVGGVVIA

rprtr lhthr nr ([dR][dP][dR][dT][dR][dL][dH][dT][dH][dR][dN][dR]; also: conjugated to KLH) [D3, D-peptide used as immunogen, covalently bonded to KLH]
antibody response against the amyloid beta peptide after immunization: results in an antibody response against the amyloid beta peptide
